The record followed here is patent US20230312724A1 (KADMON, published 2023).

Where two headings read alike, the source gives them in different places.

Assay [1] concerns the target T1, IgV domain of human B7-H4-Fc (human).
T1 construct: also called hB7-H4 IgV domain
The experiment in a line: ELISA, coated hB7-H4 IgV domain. On the procedure: (§1) ELISA experiments were performed to determine binding to hB7-H4-Fc (FIG. 4A), hB7-H4-his (FIG. 4B), hB7-H4 IgV domain (FIG. 4C), and mB7-H4 IgV domain (FIG. 4D). Flow cytrometry experiments were performed to determine binding to CHO cells expressing hB7-H4 (FIG. 4E) or mB7-H4 (FIG. 4F). […] A cross-reactive IgV binding antibody was used as a control.
(§2) About 1-2 μg/ml of human or mouse B7-H4-Fc (or his-tagged) was immobilized on ELISA plates (Immuno 2HB, Thermo scientific, cat #3455) at 4° C. overnight. After blocking the plates with 3% PBS+milk, serial diluted antibodies were added to the blocked plates and incubated at RT for 1-1.5 h. After washing the plates with PBS-T (0.05%), horse radish peroxidase (HRP)-conjugated antibody targeting the hFab was added to the plate. Signals were developed by adding 3,3′,5,5′-Tetramethylbenzidine (TMB (followed 1N of H₂SO₄ to stop the reaction. The OD at 450 nm was read by ELISA plate reader (Infinite M1000 from TECAN). GraphPad from Prism was used to plot OD450 vs. antibody concentration curve and to calculate the EC50 values.
On the technique in general: In an ELISA, binding on a coated surface is turned into a signal by an enzyme label.

Assay [2] concerns the target T2, mouse B7-H4 expressed on cells (mouse, UniProt Q7TSP5 25-257).
T2 construct: also called cellular mB7-H4; mB7-H4/CT26
T2 sequence: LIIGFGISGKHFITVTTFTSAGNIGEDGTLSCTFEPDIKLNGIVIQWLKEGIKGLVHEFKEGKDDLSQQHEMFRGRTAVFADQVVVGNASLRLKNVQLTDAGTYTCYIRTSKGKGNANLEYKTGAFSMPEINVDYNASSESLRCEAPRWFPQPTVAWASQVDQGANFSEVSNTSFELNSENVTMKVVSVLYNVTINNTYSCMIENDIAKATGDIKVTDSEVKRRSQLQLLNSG
The experiment in a line: flow cytometry, CHO cells expressing mB7-H4. On the procedure: (§3) ELISA experiments were performed to determine binding to hB7-H4-Fc (FIG. 3A), hB7-H4-his (FIG. 3B), mB7-H4-Fc (FIG. 3C), and hB7-H4 IgV domain (FIG. 3D). Flow cytometry experiments were performed to determine binding to CHO cells expressing hB7-H4 (FIG. 3E) or mB7-H4 (FIG. 3F).
(§4) Cells were harvested, washed once, and then re-suspended to the concentration of 1×10⁶ cells/ml in ice cold FACS Buffer. 25 μl of cell suspension was added to each well of a 96-well round-bottom microliter plate. Serially diluted antibodies or fusion proteins were added to each well and incubated for 1 hour at 4° C. Cells were washed three times by centrifugation at 1500 rpm for 5 minutes, and then stained with secondary antibody (1:200 dilution) for 30 min at 4° C. in the dark. Cells were washed once, re-suspended in 100 μl PBS buffer and then analyzed using Guava Flow Cytometry EasyCyte system.
A general note: A flow cytometer gives signals particle by particle.

Assay [3] addresses T3, hB7-H4 (soluble human B7-H4, construct not named) (human, UniProt Q7Z7D3 25-259, limits assumed).
T3 construct: also called soluble hB7-H4
T3 sequence: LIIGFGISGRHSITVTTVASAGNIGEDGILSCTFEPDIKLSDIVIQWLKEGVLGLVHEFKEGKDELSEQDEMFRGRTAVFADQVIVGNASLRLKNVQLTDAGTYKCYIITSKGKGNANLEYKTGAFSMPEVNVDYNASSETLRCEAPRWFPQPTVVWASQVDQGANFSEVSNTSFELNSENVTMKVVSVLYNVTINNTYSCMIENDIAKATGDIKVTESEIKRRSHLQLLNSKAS
The experiment in a line: SPR (Biacore). In short, it runs like this:
(§5)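 Kinetic constants came from a 1:1 Langmuir fit of binding at 25 °C in HBS-EP, pH 7.4. Analyte (100 nM to 0.1 nM) flowed for 180 s, then dissociated for 1000 or 1200 s, over amine-coupled human B7-H4-Fc, human B7-H4-his or mouse B7-H4-Fc surfaces at 50-100 RU.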
(SPR reads the build-up and loss of mass on a sensor chip optically.)

Assay [4] has as its target T4, IgC domain of mouse B7-H4-Fc (mouse; human).
T4 construct: also called mB7-H4 IgC domain
Description: ELISA, coated mB7-H4 IgC domain (title on the sheet: IgC domain of mB7H4). On the procedure:
as §2

Assay [5] concerns the target T5, IgV domain of mouse B7-H4-Fc (mouse; human).
T5 construct: also called mB7-H4 IgV domain
Description: ELISA, coated mB7-H4 IgV domain. How it is done:
as §1, §2

Assay [6] deals with T6, human B7-H4-Fc (human).
T6 construct: also called hB7-H4-Fc; hB7-H4 Fc
The experiment in a line: ELISA, coated hB7-H4-Fc. How it is done:
as §1, §2

Assay [7] deals with T7, human B7-H4 expressed on cells (human, UniProt Q7Z7D3 25-282).
T7 construct: Transfected CHO cells or tumor cell lines that carry hB7-H4; also called cellular hB7-H4
T7 sequence: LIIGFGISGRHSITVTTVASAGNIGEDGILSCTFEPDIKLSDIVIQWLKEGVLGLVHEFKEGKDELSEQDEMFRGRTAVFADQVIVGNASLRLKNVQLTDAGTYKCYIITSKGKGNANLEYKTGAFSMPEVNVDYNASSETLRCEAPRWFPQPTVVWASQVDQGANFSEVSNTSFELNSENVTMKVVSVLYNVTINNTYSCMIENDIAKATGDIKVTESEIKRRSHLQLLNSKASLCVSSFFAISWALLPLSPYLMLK
Description: flow cytometry, SK-BR-3 cells. The method, boiled down:
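Cell-surface binding read by flow cytometry: cells (1×10⁶/ml, cold FACS buffer) + serial dilutions of antibody or fusion protein, 1 h, 4 °C; 3 washes; secondary Ab 1:200, 30 min, 4 °C, dark.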

The target in assay [8] is T3, hB7-H4 (soluble human B7-H4, construct …). The experiment in a line: ELISA, hB7-H4. In short, it runs like this:
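Coat: B7-H4-Fc or his-tagged protein, ~1-2 μg/ml, 4° C overnight. Block 3% PBS+milk; serial antibody dilutions 1-1.5 h RT; wash PBS-T (0.05%); HRP anti-hFab; TMB, 1N H₂SO₄ stop; OD450. EC50 from dose-response fit.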

The target of assay [9] is T8, human B7-H4-his (human, UniProt Q7Z7D3 25-259).
T8 construct: also called hB7-H4-his; hB7-H4 his; not shown: his tag
T8 sequence: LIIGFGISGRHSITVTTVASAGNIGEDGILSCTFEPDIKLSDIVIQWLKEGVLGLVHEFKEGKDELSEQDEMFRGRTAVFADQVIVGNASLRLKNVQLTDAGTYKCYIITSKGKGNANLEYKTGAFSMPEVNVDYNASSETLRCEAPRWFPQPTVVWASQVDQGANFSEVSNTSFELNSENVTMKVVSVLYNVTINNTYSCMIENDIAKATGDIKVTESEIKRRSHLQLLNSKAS
Description: SPR (Biacore).

Assay [10] addresses T6, human B7-H4-Fc. The experiment in a line: SPR (Biacore).
The target of assay [11] is T9, mouse B7-H4-Fc (mouse; human).
T9 construct: also called mB7-H4-Fc; mB7-H4-hFc
The experiment in a line: ELISA, coated mB7-H4-Fc. How it is done: as §3, §2

In assay [12] the target is T10, mouse B7-H4-his (mouse, UniProt Q7TSP5 25-257).
T10 construct: also called mB7-H4-his; mB7-H4-His; not shown: his tag
T10 sequence: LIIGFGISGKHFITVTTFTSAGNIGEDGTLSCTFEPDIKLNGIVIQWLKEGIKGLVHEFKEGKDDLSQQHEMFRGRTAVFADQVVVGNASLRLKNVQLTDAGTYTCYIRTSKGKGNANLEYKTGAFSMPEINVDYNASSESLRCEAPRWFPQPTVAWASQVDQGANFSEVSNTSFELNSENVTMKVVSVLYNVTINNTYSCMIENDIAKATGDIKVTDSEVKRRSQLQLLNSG
Description: ELISA, coated mB7-H4-his. On the procedure: as §2

Assay [13] concerns the target T11, mB7-H4 (soluble mouse B7-H4, construct not named) (mouse, UniProt Q7TSP5 25-257, limits assumed).
T11 sequence: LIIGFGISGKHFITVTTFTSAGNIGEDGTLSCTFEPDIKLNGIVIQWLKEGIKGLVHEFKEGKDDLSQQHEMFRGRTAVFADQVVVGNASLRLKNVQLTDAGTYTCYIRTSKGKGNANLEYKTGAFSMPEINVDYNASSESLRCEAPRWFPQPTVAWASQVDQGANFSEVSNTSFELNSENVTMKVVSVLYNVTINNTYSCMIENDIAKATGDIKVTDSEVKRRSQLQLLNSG
The experiment in a line: summary of ELISA and flow cytometry.

For assay [14], the target named is T10, mouse B7-H4-his. The experiment in a line: ELISA on coated mB7-H4-his. How it is done: as §2
The target in assay [15] is T2, mouse B7-H4 expressed on cells. Description: flow cytometry, CT26 cells expressing mB7-H4.
Assay [16] deals with T3, hB7-H4 (soluble human B7-H4, construct …). Description: SPR (Biacore). The source holds these as a separate data set.
The target is the same in assay [17]. Description: ELISA, hB7-H4. On the procedure:
as §2
This is another data set of the same source.

In assay [18] the target is T8, human B7-H4-his. The experiment in a line: SPR (Biacore). In short, it runs like this:
as §5
This is another data set of the same source.

In assay [19] the target is T6, human B7-H4-Fc. The experiment in a line: SPR (Biacore). In short, it runs like this: as §5
The source holds these as a separate data set.

The target of assay [20] is T4, IgC domain of mouse B7-H4-Fc. The experiment in a line: ELISA, coated mB7-H4 IgC domain.
Assay [21] addresses T1, IgV domain of human B7-H4-Fc. The experiment in a line: ELISA on coated IgV domain of hB7-H4. How it is done:
as §2

Assay [22] shares this target. Description: ELISA, coated hB7-H4 IgV domain. The source holds these as a separate data set.
In assay [23] the target is T5, IgV domain of mouse B7-H4-Fc. The experiment in a line: ELISA, coated mB7-H4 IgV domain. This is another data set of the same source.
In assay [24] the target is T7, human B7-H4 expressed on cells. Description: flow cytometry, SK-BR-3 cells. The source holds these as a separate data set.
Assay [25] addresses T6, human B7-H4-Fc. Description: ELISA on coated hB7-H4-Fc. On the procedure: as §2
The target of assay [26] is T12, IgC domain of human B7-H4-Fc (human).
T12 construct: also called hB7-H4 IgC domain
Description: ELISA, coated hB7-H4 IgC domain.

Assay [27] addresses T8, human B7-H4-his. Description: ELISA on coated hB7-H4-his. On the procedure:
as §2

Assay [28] concerns the target T9, mouse B7-H4-Fc. The experiment in a line: ELISA on coated mB7-H4-Fc. How it is done:
as §2

Assay [29] addresses T7, human B7-H4 expressed on cells. Description: flow cytometry, MDA-MB-468 cells. How it is done: as §4
For assay [30] the target is unchanged. The experiment in a line: flow cytometry, MX-1 cells. On the procedure: as §4

T1 sequence (chain, as listed by the source): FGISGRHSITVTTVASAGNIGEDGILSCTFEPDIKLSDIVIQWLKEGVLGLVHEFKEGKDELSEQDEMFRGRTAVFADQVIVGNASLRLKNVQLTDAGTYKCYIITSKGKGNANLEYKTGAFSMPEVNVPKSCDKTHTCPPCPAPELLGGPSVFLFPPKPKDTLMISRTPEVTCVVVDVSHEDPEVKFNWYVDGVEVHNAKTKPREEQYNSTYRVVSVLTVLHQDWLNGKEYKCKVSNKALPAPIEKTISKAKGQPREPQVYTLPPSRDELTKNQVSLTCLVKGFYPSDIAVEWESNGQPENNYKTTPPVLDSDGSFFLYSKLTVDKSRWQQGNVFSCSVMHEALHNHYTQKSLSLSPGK
T6 sequence (chain, as listed by the source): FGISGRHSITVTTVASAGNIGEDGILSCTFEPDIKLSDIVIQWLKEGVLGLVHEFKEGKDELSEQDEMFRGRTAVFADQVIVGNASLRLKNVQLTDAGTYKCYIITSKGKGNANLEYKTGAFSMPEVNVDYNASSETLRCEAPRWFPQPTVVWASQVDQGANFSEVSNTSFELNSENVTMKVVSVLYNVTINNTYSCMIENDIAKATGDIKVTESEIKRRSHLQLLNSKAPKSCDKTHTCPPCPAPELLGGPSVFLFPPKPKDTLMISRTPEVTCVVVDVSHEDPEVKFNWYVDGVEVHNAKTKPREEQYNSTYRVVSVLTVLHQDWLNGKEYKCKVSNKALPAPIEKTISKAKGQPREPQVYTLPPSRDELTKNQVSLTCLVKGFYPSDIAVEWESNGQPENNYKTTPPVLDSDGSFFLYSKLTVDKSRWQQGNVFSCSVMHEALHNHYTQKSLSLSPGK
T9 sequence (chain, as listed by the source): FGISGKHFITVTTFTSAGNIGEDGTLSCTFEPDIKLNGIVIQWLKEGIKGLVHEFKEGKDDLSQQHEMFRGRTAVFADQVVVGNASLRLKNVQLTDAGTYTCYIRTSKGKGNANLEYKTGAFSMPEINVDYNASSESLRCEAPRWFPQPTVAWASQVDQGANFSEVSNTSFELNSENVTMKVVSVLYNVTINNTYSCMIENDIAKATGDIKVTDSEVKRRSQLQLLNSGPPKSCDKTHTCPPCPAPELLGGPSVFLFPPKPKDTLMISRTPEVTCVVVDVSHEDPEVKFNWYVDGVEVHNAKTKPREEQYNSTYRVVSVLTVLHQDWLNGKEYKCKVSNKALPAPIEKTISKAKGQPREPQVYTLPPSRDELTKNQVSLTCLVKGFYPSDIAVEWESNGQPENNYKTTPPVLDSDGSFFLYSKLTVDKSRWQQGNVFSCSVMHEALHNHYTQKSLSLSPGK
T4 sequence (chain, as listed by the source): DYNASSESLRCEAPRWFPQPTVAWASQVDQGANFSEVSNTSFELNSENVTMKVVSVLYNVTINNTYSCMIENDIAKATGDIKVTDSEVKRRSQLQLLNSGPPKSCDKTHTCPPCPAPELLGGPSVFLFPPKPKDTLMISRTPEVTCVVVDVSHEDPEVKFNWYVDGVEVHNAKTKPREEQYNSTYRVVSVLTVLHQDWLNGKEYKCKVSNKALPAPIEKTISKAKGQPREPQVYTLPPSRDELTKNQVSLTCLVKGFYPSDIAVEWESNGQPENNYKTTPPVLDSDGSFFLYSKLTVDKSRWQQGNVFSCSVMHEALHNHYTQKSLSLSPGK
T5 sequence (chain, as listed by the source): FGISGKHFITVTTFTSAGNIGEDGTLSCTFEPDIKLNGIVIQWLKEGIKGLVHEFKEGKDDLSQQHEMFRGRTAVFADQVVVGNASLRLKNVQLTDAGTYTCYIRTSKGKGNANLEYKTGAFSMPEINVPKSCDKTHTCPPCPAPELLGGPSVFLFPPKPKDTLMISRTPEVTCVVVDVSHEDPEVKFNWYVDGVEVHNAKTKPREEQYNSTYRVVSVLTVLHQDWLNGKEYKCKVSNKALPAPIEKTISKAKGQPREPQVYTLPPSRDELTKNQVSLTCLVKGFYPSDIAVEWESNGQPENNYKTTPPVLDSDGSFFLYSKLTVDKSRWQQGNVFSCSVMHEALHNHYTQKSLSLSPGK
T12 sequence (chain, as listed by the source): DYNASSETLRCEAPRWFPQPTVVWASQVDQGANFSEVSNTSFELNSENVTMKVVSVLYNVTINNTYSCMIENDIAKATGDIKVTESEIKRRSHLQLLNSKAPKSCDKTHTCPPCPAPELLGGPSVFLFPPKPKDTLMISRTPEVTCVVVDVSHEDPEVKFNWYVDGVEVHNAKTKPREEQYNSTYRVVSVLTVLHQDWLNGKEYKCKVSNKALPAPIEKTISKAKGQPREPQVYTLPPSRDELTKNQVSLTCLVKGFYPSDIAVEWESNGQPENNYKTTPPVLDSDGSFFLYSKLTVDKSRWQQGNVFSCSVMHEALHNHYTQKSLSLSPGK

B1: 1D3/1D3 (antibody, human IgG1, V domains shown)
VH: EVQLLESGGGLVQPGGSLRLSCAASGFTFNTHAMHWVRQAPGKGLEWVSAISGSGGSTYYADSVKGRFTISRDISKNTLYLQMNSLRAEDTAVYYCARLLGRFGEYGMDVWGQGTTVTVSS
VL: DIQMTQSPSSLSASVGDRVTITCRASRSIYTWLAWYQQKPGKAPKLLIYDASTLQSGVPSRFSGSGSGTDFTLTISSLQPEDFATYYCQQSYSTPYTFGGGTKVEIK
For orientation: EC50 (read off the curve) means the concentration that produces a half-maximal response. Lower therefore signals a more potent agent. The Kd is a measure of binding affinity in units of concentration. By EC50 is commonly meant the concentration at which the effect is half-maximal. Lower therefore signals higher potency in that assay. For B1, the “EC50 (read off the curve)” value in assay [1] was roughly 10 ng/mL; in [6] it was roughly 7 ng/mL. Further, the binding result in assay [2] is on record as “no binding (tested: axis value -7 (log scale labelled nM))”; in assay [4], “no binding (tested: axis value -8 (labelled log nM))”; in [5], “no binding”; in assay [11], “no binding (tested: axis value -8 (log scale labelled nM))”; in assay [12], “no binding (tested: axis value -8 (labelled log nM))”; in assay [13], “no binding”. In addition, the Kd in [3] was 0.775 nM; in assay [9] it was 0.551 nM; in assay [10], 0.805 nM. Also, the EC50 came to 18.6 nM in assay [7] and 0.044 nM in [8].

B2: 3F2/50A10 (antibody, human IgG1, V domains shown)
VH: QVQLVQSGAEVKKPGASVKVSCKASGYTFTAQYMYWVRQAPGQGLEWMGRINPTSGNTVYAQKLQGRVTMTRDTSTSTVYMELSSLRSEDTAVYYCARGINWFDPWGQGTLVTVSS
VL: DIQMTQSPSSLSASVGDRVTITCQASQDISNYINWYQQKPGKAPKLLIYAASRLQSGVPSRFSGSGSGTDFTLTISSLQPEDFATYYCQQSYRSPFTFGQGTKLEIK
Turning to B2, the binding result in assay [14] is “no binding (tested: 10 nM)”; in [15], “no binding (tested: log 2 nM (100 nM))”; in assay [20], “no binding (tested: log 1 nM (10 nM))”; in assay [23] it was “no binding (tested: log 1 nM (10 nM))”; in [26] it was “no binding (tested: log 1 nM (10 nM))”; in [28], “no binding (tested: 10 nM)”. Moreover, the Kd stood at 0.0454 nM in [16], 0.0155 nM in assay [18], 0.0433 nM in assay [19] and 0.0385 nM in [3]. Moreover, the EC50 amounted to 0.082 nM in assay [17]; 0.41 nM in [7]; 0.046 nM in assay [8]; 1.18 nM in assay [24]; 0.416 nM in [29]; 0.12 nM in [30]. For the same molecule, the concentration for a half-maximal effect (EC50 (read off the curve)) was roughly 0.08 nM in assay [21], roughly 0.1 nM in assay [22], roughly 0.07 nM in assay [25] and roughly 0.1 nM in assay [27].
